Experimental data: patent publication US20040072207

Test system: raptor (Regulatory Associated Protein of mTOR), endogenous human protein

**Q.** For “mTOR (mammalian target of rapamycin), endogenous protein of human cell lines”, which “in vitro kinase activity of mTOR towards S6K1 (32P incorporation into GST-S6K1)” value is on record?
**A.** the in vitro kinase activity of mTOR towards S6K1 inversely correlated with the amount of raptor recovered with mTOR
